We go through two substances from publication doi:10.1101/238154.

The Kd is the constant that tells how readily two partners part at equilibrium. Low readings indicate tighter binding, high ones weaker binding.

For experiment [1], the target named is SAGA DUB module containing Ubp8^C146A (yeast) (UniProt P50102). Kind of experiment: ITC. (In ITC the heat of successive injections is recorded.)
For experiment [2], the target named is SAGA DUB module containing Ubp8^C146S (yeast) (UniProt P50102). Kind of experiment: ITC.
Sequence of SAGA DUB module containing Ubp8^C146S (yeast) (P50102 whole entry C146S, chain 1 of 4): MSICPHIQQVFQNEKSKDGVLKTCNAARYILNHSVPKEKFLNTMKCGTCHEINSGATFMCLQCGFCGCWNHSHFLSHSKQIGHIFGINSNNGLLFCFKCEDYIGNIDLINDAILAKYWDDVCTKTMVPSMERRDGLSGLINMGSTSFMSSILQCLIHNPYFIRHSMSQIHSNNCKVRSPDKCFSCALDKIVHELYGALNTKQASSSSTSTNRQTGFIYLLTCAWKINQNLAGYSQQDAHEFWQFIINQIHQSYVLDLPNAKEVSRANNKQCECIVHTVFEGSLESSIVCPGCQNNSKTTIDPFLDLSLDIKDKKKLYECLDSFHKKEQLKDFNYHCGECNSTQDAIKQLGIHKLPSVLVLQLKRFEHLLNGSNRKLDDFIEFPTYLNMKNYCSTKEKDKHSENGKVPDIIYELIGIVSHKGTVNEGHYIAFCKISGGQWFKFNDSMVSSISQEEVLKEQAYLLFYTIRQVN
Sequence of SAGA DUB module containing Ubp8^C146S (yeast) (Q03067 whole entry, chain 2 of 4, further chain): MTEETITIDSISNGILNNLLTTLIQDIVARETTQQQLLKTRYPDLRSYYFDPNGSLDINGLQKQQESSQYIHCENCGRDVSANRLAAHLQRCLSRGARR
Sequence of SAGA DUB module containing Ubp8^C146S (yeast) (Q6WNK7 whole entry, chain 3 of 4, further chain): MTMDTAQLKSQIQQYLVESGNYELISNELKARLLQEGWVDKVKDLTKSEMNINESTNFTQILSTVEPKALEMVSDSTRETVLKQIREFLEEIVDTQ
Sequence of SAGA DUB module containing Ubp8^C146S (yeast) (P53165 1-96, chain 4 of 4, further chain): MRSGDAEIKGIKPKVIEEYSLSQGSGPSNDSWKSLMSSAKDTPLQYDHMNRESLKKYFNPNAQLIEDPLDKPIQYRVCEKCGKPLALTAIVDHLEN
The target of experiment [3] is FlAsH tagged K63-linked diubiquitin (UniProt P0CG47). Kind of experiment: fluorescence polarisation.

Sequence of SAGA DUB module containing Ubp8^C146A (yeast) (P50102 whole entry C146A, chain 1 of 4): as the sequence (P50102 whole entry C146S, chain 1 of 4) above, with S146A counted along it
Sequence of SAGA DUB module containing Ubp8^C146A (yeast) (Q03067 whole entry, chain 2 of 4, further chain): as the sequence (Q03067 whole entry, chain 2 of 4, further chain) above
Sequence of SAGA DUB module containing Ubp8^C146A (yeast) (Q6WNK7 whole entry, chain 3 of 4, further chain): as the sequence (Q6WNK7 whole entry, chain 3 of 4, further chain) above
Sequence of SAGA DUB module containing Ubp8^C146A (yeast) (P53165 1-96, chain 4 of 4, further chain): as the sequence (P53165 1-96, chain 4 of 4, further chain) above

As for “K48-linked diubiquitin (from UniProt P0CG47 1-76)”, the figures for the Kd in experiment [1] and in experiment [2] were 0.47 µM and 4.6 µM, respectively.

Substance “OTUD1^C320A catalytic domain (residues 287-435) (from UniProt Q5VV17 287-435) (domain or fragment)” registered a Kd in experiment [3] of 40 µM.
